This test concerns the target human transferrin receptor-Fc tag standard (human, UniProt P02786 89-760). In words: ELISA.

Sequence of human transferrin receptor-Fc tag standard (P02786 89-760): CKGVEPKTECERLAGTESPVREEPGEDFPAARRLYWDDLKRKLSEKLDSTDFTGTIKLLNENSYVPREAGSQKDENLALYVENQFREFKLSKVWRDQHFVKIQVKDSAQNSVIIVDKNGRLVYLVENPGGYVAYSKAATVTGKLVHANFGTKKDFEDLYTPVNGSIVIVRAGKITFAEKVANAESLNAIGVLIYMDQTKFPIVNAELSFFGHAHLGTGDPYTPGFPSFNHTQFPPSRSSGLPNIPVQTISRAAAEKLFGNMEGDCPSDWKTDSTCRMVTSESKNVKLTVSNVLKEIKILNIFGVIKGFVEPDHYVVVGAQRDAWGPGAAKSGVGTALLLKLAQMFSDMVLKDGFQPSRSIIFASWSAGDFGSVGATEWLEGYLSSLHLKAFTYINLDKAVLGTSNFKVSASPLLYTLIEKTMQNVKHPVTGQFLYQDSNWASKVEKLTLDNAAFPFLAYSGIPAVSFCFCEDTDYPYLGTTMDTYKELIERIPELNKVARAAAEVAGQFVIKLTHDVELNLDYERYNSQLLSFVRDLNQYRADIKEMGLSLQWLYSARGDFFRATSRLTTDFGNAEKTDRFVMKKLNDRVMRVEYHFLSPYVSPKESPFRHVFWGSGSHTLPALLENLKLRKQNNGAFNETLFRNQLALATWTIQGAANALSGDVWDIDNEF

B1: huHF_Mutant1-dual (designed binder)
chain: MTTASTSQVRQNYHAASEAAINAQINLELYASYVYLSMSYYFDRDDVALKNFAKYFLHQSHEEREHAEKLMKLQNQRGGRIALADIQKPDCDDGGSYGSLYAFDIWESGLNAMECALHLEKNVNQSLLELHKLATDKNDPHLCDFIETHYLNEQVKAIKELGDHVTNLRKMGAPESGLAEYLFDKHTLGDSDNESMPSFITLASLSTWEGYFDF
In turn, B1 displayed a dissociation constant (Kd) of 182 nM.

These data come from patent US20240218030A1 (published 2024).
